We go through 1 molecule from PMC6805484, “The RNA-binding ubiquitin ligase MKRN1 functions in ribosome-associated quality control of poly(A) translation” (Genome Biology, 2019).

This test concerns the target T1, recombinant His-PABPC1 (human, UniProt P11940 1-636).
T1 construct: hsPABPC1 expressed from pET53-DEST; also called N-His6-tagged hsPABPC1; source: E. coli Rosetta 2(DE3) pLysS, purified (HisTrap FF, HiTrap Heparin HP, Superdex 200); not shown: His6, N-terminal, kept
As to the kind of experiment: pull-down; biotinylated 42-nt RNA (22 nt of the SRSF4 3′ UTR followed by A20, or by 20 V as control) on NeutrAvidin agarose beads, incubated with 2 μg His-MKRN1-WT and/or His-PABPC1, 1 h at 4 °C, 50 mM Tris-HCl pH 7.4, 500 mM KCl, 12.5 mM MgCl2, 1% Triton X-100; SDS-PAGE with Coomassie staining. The conditions noted are these: both partners purified.

T1 sequence (P11940 whole entry): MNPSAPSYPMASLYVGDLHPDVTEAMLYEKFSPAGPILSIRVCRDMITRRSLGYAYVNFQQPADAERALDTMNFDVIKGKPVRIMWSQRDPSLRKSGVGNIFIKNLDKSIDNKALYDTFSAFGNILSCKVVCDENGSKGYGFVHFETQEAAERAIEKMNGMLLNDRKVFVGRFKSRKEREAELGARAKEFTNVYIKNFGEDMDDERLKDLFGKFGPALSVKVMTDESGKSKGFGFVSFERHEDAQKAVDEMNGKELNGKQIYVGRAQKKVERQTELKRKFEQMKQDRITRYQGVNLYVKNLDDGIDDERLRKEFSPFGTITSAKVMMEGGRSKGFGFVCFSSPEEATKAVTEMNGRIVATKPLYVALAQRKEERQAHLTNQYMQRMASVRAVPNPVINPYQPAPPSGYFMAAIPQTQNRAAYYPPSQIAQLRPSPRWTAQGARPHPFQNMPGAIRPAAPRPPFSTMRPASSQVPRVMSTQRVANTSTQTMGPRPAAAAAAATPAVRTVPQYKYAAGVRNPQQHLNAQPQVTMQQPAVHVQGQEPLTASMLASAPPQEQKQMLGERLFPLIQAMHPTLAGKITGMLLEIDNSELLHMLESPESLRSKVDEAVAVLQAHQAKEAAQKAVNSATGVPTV

B1: recombinant His-MKRN1^wt (natural protein, human, UniProt Q9UHC7 1-482, looked up)
chain: MAEAATPGTTATTSGAGAAAATAAAASPTPIPTVTAPSLGAGGGGGGSDGSGGGWTKQVTCRYFMHGVCKEGDNCRYSHDLSDSPYSVVCKYFQRGYCIYGDRCRYEHSKPLKQEEATATELTTKSSLAASSSLSSIVGPLVEMNTGEAESRNSNFATVGAGSEDWVNAIEFVPGQPYCGRTAPSCTEAPLQGSVTKEESEKEQTAVETKKQLCPYAAVGECRYGENCVYLHGDSCDMCGLQVLHPMDAAQRSQHIKSCIEAHEKDMELSFAVQRSKDMVCGICMEVVYEKANPSERRFGILSNCNHTYCLKCIRKWRSAKQFESKIIKSCPECRITSNFVIPSEYWVEEKEEKQKLILKYKEAMSNKACRYFDEGRGSCPFGGNCFYKHAYPDGRREEPQRQKVGTSSRYRAQRRNHFWELIEERENSNPFDNDEEEVVTFELGEMLLMLLAAGGDDELTDSEDEWDLFHDELEDFYDLDL
notes: hsMKRN1 expressed from pET53-DEST; also called N-His6-tagged hsMKRN1; source: E. coli Rosetta 2(DE3) pLysS, purified (HisTrap FF, HiTrap Q HP, Superdex 200); not shown: His6, N-terminal, kept
B1: the binding result is “binds”.
